The source of these data is patent US12590158 (XIYUAN ANJIAN MEDICINE SHANGHAI, dated 2026).

Assay [1] deals with T1, full-length human TrkA expressed on cells (human, UniProt P04629 33-796). The assay is described as follows: cell-based or functional assay.
Assay [2] addresses T1, full-length human TrkA expressed on …. The assay is described as follows: cell-based or functional assay. This is another data set of the same source.
Assay [3] has the same target. The assay is described as follows: cell-based or functional assay. This is another data set of the same source.
In assay [4] the target is fusion protein (fused to human Fc) containing only the portion of human TrkA extracellular region that binds NGF (TrkA 192-402) (ACROBiosystems TRA-H5258) (human) (UniProt P04629). The assay is described as follows: ELISA, coated human TrkA (192-402)-hFc.
fusion protein (fused to human Fc) containing only the portion of human TrkA extracellular region that binds NGF (TrkA 192-402) (ACROBiosystems TRA-H5258) (human), sequence (P04629 192-402 limits assumed, form in doubt): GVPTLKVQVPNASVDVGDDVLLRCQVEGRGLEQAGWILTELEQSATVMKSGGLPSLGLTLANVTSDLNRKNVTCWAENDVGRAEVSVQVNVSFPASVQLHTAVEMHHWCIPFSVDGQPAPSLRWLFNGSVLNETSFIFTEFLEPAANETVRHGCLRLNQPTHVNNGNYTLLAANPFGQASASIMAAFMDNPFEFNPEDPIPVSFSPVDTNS
Assay [5] concerns the target T2, TrkA extracellular region (33-417) protein comprising human Fc (ACROBiosystems TRA-H5259) (human, UniProt P04629 33-417).
T2 construct: range 33-417; Bought fusion protein; also called human TrkA (33-417); human TrkA extracellular region
The assay is described as follows: ELISA, coated human TrkA (33-417)-hFc, anti-mouse Fc-HRP. Here is the method: (§1) Example 2: ELISA Detection of the Binding of Murine Anti-TrkA Antibodies to Human TrkA The binding abilities of the anti-TrkA antibodies were detected by using a TrkA extracellular region (33-417) protein comprising human Fc (Beijing ACROBiosystems Co., Ltd., TRA-H5259). Each well of a 96-well microtiter plate was coated with 50 ng of human TrkA, washed and blocked, and then added with serially diluted antibodies, and incubated at room temperature for 1 hour. After washing three times, horseradish peroxidase-conjugated goat anti-mouse Fc antibody (Biolegend, 405306) was added and incubated at room temperature for 1 hour. After washing three time, tetramethylbenzidine (TMB, Biolegend, 421101) was added for color development. 1M HCl was used to terminate the color development, and the absorbance values were read at 450 nm with a microplate reader.

Assay [6] concerns the target T3, rat TrkA extracellular region fusion protein (fused to human Fc) (Yiqiao Shenzhou 80243-R03H) (rat, UniProt P35739 33-418).
T3 construct: extracellular domain; Bought fusion protein
The assay is described as follows: ELISA, plate coated with rat TrkA extracellular region-hFc, HRP goat anti-mouse Fc detection. Here is the method: as §1
(§2) In addition, the species cross-reactivities of anti-TrkA antibodies were detected with monkey TrkA (Hangzhou Haoyang Biotechnology Co., Ltd., HSP037-05), rat TrkA (Beijing Yiqiao Shenzhou Technology Co., Ltd., 80243-R03H), mouse TrkA (Beijing Yiqiao Shenzhou Technology Co., Ltd., 51103-M02H) extracellular region fusion protein (fused to human Fc).

The target in assay [7] is T2, TrkA extracellular region (33-417) …. The assay is described as follows: competition ELISA, coated TrkA (33-417)-hFc, antibody titrated, competitor biotin-labeled human NGF. Here is the method:
Each well of a 96-well microtiter plate was coated with 50 ng of TrkA extracellular region (33-417) protein fused to human Fc, washed three times and blocked with 3% BSA for 1 hour. […] Each well was added with 100 μl and incubated at room temperature for 30 minutes. […] Streptavidin-labeled horseradish peroxidase (Streptavidin-HRP, Biolegend, 405210) was added and incubated for 0.5 hours. After washing three times, TMB was added to the plate, and the absorbance at 450 nm was read by a microplate reader after the color development was terminated.

Assay [8] shares this target. The assay is described as follows: BLI (ForteBio Octet Red96), TrkA (33-417)-hFc captured on anti-human Fc sensor, antibody in solution. From the text: Example 3: Affinity Assay of Murine Anti-TrkA Antibodies Binding to Human TrkA The affinities of the antibodies were detected with Biomolecular Interaction Detection Platform (ForteBio Octet Red96 (PALL)).
Human TrkA extracellular region (33-417) protein containing human Fc tag was fixed onto a chip by using an anti-human Fc capture sensor (Fortebio, 18-5088), and then bound to gradient concentrations of anti-TrkA antibody.

Assay [9] addresses T4, mouse TrkA extracellular region fusion protein (fused to human Fc) (Yiqiao Shenzhou 51103-M02H) (mouse, UniProt Q3UFB7 34-420).
T4 construct: extracellular domain; Bought fusion protein
The assay is described as follows: ELISA, plate coated with mouse TrkA extracellular region-hFc, HRP goat anti-mouse Fc detection. Here is the method:
as §1, §2

For assay [10], the target named is T5, human TrkB extracellular region protein (Yiqiao Shenzhou 10047-H03H) (human, UniProt Q16620 32-430).
T5 construct: extracellular domain; Bought protein
T5 sequence (Q16620 32-430): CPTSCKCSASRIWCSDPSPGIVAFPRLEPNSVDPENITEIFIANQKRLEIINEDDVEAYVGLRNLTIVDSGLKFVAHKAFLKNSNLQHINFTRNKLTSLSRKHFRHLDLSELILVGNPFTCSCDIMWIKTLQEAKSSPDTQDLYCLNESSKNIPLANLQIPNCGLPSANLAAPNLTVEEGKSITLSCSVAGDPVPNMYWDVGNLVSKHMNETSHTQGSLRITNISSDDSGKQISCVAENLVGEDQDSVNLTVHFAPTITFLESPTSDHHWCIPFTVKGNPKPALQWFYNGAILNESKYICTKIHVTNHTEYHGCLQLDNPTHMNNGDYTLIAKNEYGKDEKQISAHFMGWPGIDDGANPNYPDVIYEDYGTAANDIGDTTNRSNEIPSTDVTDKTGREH
The assay is described as follows: ELISA, plate coated with human TrkB extracellular region protein, HRP goat anti-mouse Fc detection. As for the experimental part:
as §1
(§3) Example 7: Detection of the Binding of Murine Anti-TrkA Antibodies to TrkA Proteins of the Same Family Each well of a 96-well microtiter plate was coated with 50 ng of human TrkA extracellular region protein, human TrkB extracellular region protein (Beijing Yiqiao Shenzhou Technology Co., Ltd., 10047-H03H), human TrkC extracellular region protein (Beijing Yiqiao Shenzhou Technology Co., Ltd., 10048-H03H). The bindings of the anti-TrkA antibodies to human TrkA and the two proteins of the same family were detected according to the method described in Example 2.

For assay [11], the target named is T6, human TrkC extracellular region protein (Yiqiao Shenzhou 10048-H03H) (human, UniProt Q16288 32-429).
T6 construct: extracellular domain; Bought protein
The assay is described as follows: ELISA, plate coated with human TrkC extracellular region protein, HRP goat anti-mouse Fc detection. As for the experimental part: as §1, §3

T1 sequence (P04629 33-796): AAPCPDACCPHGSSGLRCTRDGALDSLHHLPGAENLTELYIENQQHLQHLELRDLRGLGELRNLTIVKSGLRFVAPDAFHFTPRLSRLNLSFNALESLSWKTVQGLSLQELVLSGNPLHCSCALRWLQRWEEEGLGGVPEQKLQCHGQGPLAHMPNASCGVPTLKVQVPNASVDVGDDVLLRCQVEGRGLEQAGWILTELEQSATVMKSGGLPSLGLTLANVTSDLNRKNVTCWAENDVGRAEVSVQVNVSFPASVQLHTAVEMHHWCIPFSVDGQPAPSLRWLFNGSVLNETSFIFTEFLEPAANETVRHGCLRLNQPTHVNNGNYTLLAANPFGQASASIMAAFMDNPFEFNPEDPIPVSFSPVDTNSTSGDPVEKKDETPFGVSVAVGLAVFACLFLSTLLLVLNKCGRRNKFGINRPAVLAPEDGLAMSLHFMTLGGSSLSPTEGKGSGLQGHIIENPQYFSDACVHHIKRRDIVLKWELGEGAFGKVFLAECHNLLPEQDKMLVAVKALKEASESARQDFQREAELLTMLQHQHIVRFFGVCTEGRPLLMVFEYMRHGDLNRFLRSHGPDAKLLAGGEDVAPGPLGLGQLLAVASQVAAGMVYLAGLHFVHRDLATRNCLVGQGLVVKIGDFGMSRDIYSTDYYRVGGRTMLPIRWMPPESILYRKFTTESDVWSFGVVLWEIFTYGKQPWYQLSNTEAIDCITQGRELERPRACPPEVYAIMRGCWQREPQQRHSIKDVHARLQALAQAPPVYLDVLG
T2 sequence (P04629 33-417 limits assumed): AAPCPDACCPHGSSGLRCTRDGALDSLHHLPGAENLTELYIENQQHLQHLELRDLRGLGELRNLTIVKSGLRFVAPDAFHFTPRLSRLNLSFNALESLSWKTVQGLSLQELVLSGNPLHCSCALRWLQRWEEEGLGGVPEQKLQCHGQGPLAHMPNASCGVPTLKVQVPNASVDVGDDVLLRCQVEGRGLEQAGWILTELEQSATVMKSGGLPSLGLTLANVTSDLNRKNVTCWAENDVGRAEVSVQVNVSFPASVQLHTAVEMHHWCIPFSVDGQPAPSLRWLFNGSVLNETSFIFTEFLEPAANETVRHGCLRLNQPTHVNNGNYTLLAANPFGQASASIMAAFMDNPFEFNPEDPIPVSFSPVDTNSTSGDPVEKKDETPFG
T4 sequence (Q3UFB7 34-420, stated change not applied): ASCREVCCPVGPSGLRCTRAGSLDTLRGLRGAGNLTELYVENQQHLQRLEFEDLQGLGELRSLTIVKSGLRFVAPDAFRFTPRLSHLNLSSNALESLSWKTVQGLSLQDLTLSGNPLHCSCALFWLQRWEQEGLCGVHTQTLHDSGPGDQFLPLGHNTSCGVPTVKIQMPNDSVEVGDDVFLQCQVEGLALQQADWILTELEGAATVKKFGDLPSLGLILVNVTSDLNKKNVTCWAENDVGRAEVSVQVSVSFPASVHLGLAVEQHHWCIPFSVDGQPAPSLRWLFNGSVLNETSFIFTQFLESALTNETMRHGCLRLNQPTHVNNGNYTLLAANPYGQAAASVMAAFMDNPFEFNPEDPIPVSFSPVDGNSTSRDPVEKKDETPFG
T3 sequence (P35739 33-418, stated change not applied): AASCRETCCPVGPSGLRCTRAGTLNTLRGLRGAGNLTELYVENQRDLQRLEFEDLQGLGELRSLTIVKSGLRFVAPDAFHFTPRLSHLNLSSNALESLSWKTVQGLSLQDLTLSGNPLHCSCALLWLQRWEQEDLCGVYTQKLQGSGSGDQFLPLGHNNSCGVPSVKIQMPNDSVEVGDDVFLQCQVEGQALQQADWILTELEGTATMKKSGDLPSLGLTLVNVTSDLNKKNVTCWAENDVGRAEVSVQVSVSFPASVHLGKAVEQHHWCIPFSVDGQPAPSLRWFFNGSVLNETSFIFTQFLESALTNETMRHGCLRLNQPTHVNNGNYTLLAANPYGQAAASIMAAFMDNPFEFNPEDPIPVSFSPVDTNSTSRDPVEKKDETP

B1: anti-TrkA antibody 11G8 (antibody, V domains shown)
VH: QVQLQQPGAELVKPGASVKLSCKASGYTFTSYWMHWVKQRPGQGLEWIGEINPNNGLTNYDEKFKTKATLTIDKSSRTAYIQLSSLTSEDSAVYYCAKYGNYVAFAFWGQGTLVTVSA
VL: DIQMTQSPASLSATVGETVTITCRASENIYSYVAWYQQKQGKSPQLLVHNAKTLAEGVPSRFSGSGSGTQFSLKINGLHPEDFGSYYCQHHYGIPLTFGAGTKLELK
notes: Murine monoclonal antibody purified from hybridoma medium by protein G
As to B1, the “inhibition of NGF-induced TrkA/Ba/F3 cell proliferation at 2.5 µg/mL (16.67 nM) or higher” value (from here on “inhibition”) in assay [1] was found to be 100%. Also, in assay [2], the “IC50 of inhibiting NGF-induced TF-1 cell proliferation” value worked out at 1090 pM. Further, the “IC50 of inhibiting NGF-induced TrkA/Ba/F3 cell proliferation” value in [3] worked out at 1650 pM. Moreover, the 50% effective concentration (EC50) worked out at 71 pM in [4] and 114 pM in assay [5]. In addition, the binding result in [6] is recorded as “binds”; in [9], “binds”; in assay [10], “no binding (tested: 66.67 nM)”; in [11], “no binding (tested: 66.67 nM)”. The concentration for half-maximal inhibition (IC50) in assay [7] was 1900 pM. The same molecule showed a Kd in assay [8] of less than 1 pM. The koff in assay [8] is less than 1e-07 s⁻¹. Moreover, the kon in [8] is 992000 M⁻¹ s⁻¹.

B2: anti-TrkA antibody 33H5 (antibody, V domains shown)
VH: QVQLQQPGAELVKPGASVQLSCKASGYTFTSYWIHWVKQRPGQGLEWIGEINPNNGLTNYIEKFKNKATLTIDKSSNTAYMQLSGLTPEDSAVYYCAKYGNYVAFAYWGQGTLVTVSA
VL: DIQMTQSPASLSASVGDTVTITCRASENIYTYLAWYQQKQGKSPQLLVHNTKTLAEGVPSRFSGSGSGTQFSLKISSLQPEDFGTYYCQHHYGVPLTFGAGTKLELK
notes: as for B1
For B2, in [1], the “inhibition” value is 100%. Further, the “IC50 of inhibiting NGF-induced TF-1 cell proliferation” value in [2] worked out at 2140 pM. Moreover, in [3], the “IC50 of inhibiting NGF-induced TrkA/Ba/F3 cell proliferation” value was 413 pM. The EC50 turned out to be 173 pM in [4] and 204 pM in assay [5]. Moreover, the binding result was “binds” in [6], “binds” in assay [9], “no binding (tested: 66.67 nM)” in assay [10] and “no binding (tested: 66.67 nM)” in assay [11]. Moreover, the concentration for half-maximal inhibition (IC50) in assay [7] amounted to 1500 pM. The molecule further had a Kd in assay [8] of 16.2 pM. In assay [8], the dissociation rate constant (koff) stood at 2.09e-05 s⁻¹. For the same molecule, the kon in [8] was found to be 1.29e+06 M⁻¹ s⁻¹.

B3: anti-TrkA antibody 5A3 (antibody, V domains shown)
VH: QVQLQQSGAELMKPGASVKISCKAIGYTFSRYWIEWVKQRPGHGLEWIGEILPGRGVTNYNENFKGKATFTVDISSTTTYIQFSSLTSEDSAVYYCARSNYGDYDFWGQGTSLTVSS
VL: QTVVTQESALTTSPGETVTLTCRSSSGAVTTSNHANWVQEKPDHLFTSLMGGTNNRAPGVPARFSGSLIGDKAALTITGAQTEDEAIYFCALWYSNHWVFGGGTKLTVL
notes: as for B1
As for B3, the “inhibition” value in [1] worked out at 100%. Further, the “IC50 of inhibiting NGF-induced TF-1 cell proliferation” value in assay [2] was found to be 6490 pM. Also, the “IC50 of inhibiting NGF-induced TrkA/Ba/F3 cell proliferation” value in [3] is 422 pM. Moreover, the EC50 is 154 pM in [4] and 242 pM in [5]. Also, the binding result in assay [6] was “binds”; in assay [9], “binds”; in assay [10], “no binding (tested: 66.67 nM)”; in assay [11], “no binding (tested: 66.67 nM)”. The molecule also registered an IC50 in [7] of 1760 pM. The equilibrium dissociation constant (Kd) in [8] was determined as 15.5 pM. For the same molecule, in assay [8], the koff was found to be 1.88e-05 s⁻¹. Besides, the on-rate (kon) in assay [8] came out at 1.21e+06 M⁻¹ s⁻¹.

B4: anti-TrkA antibody 40D6 (antibody, V domains shown)
VH: QVQLQQSGTELMKPGASVKISCKATGYTFSRYWIEWVKQRPGHGLEWIGEILPGRSSTNYNEKFKGKATFTADTSSNTAYMQLSSLTSEDSAVYYCTRVSQLHIYFDYWGQGTTVTVSS
VL: DIVMTQVVPSVPVTPGESVSISCRSSKSLLHSNGNTYLYWFQQRPGQSPQLLIYRMSNLASGVPDRFSGSGSGTAFTLRISRVEAEDVAFYYCMQHLEFPLTFGAGTKLELK
notes: as for B1
As for B4, in [1], the “inhibition” value worked out at 100%. Also, the “IC50 of inhibiting NGF-induced TF-1 cell proliferation” value in assay [2] is 8530 pM. The “IC50 of inhibiting NGF-induced TrkA/Ba/F3 cell proliferation” value in assay [3] was determined as 1800 pM. The concentration giving a half-maximal response (EC50) in [4] turned out to be 195 pM; in assay [5], 202 pM. For the same molecule, the binding result in assay [6] is reported as “binds”; in [9] it was “binds”; in assay [10], “no binding (tested: 66.67 nM)”; in assay [11], “no binding (tested: 66.67 nM)”. The IC50 in assay [7] is 2280 pM. The Kd in assay [8] was 27.1 pM. Further, in [8], the koff came to 2.49e-05 s⁻¹. Further, the kon in [8] amounted to 918000 M⁻¹ s⁻¹.

B5: anti-TrkA antibody 26E9 (antibody, V domains shown)
VH: QVQLQQPGAELVKPGASVKLSCKSSGYTFTNYWMHWVKQRPGQGLEWIGEIYPSNGRTNYNEKFKNRATLTVDISSSTAYMQLSSLTSEDSAVYYCARSRYDPMEDWGQGTSVTVSS
VL: QIVLTQSPAIMSASPGEKVTMTCSASSSVGYMHWYQQKSGTSPKRWIYDTSKLASGVPTRFSGSGSGTSYSLTISSMEAEDAATYYCQQWSSIPLTFGSGTKLEIK
notes: as for B1
As to B5, the “inhibition” value in assay [1] was 100%. In addition, in assay [2], the “IC50 of inhibiting NGF-induced TF-1 cell proliferation” value turned out to be 1390 pM. Moreover, the “IC50 of inhibiting NGF-induced TrkA/Ba/F3 cell proliferation” value in [3] came out at 1540 pM. The 50% effective concentration (EC50) in [4] was determined as 68 pM; in [5] it was 99 pM. Further, the binding result is recorded as “binds” in [6], “binds” in assay [9], “no binding (tested: 66.67 nM)” in assay [10] and “no binding (tested: 66.67 nM)” in assay [11]. The IC50 in assay [7] is 2040 pM. For the same molecule, binding in [8] was characterised by a dissociation constant (Kd) of 26.7 pM. The molecule further had an off-rate (koff) in assay [8] of 2.46e-05 s⁻¹. In assay [8], this molecule gave an association rate constant (kon) of 923000 M⁻¹ s⁻¹.

B6: anti-TrkA antibody 42F5 (antibody, V domains shown)
VH: QVQLQQPGAELVKPGASVKLSCKSSGYTFTNYWMHWVRQRPGQGLEWIGEIYPNNGRVNYNEKFKNRATLTVDISSSTAYMQLSSLTSEDSAVYYCARSRYDPMEDWGQGTSVTVSS
VL: QVVLTQSPAIMSASPGEKVTMTCSASSSVGYMHWYQQKSGTSPKRWIYDTSKLASGVPTRFSGSGSGTSYSLTISSMEAEDAATYFCQQWSSIPLTFGSGTRLEIK
notes: as for B1
In the case of B6, the “inhibition” value in assay [1] is 100%. Moreover, in [2], the “IC50 of inhibiting NGF-induced TF-1 cell proliferation” value turned out to be 1300 pM. The “IC50 of inhibiting NGF-induced TrkA/Ba/F3 cell proliferation” value in assay [3] turned out to be 1250 pM. For the same molecule, the concentration giving a half-maximal response (EC50) was found to be 134 pM in [4] and 128 pM in assay [5]. In addition, the binding result is listed as “binds” in [6], “binds” in assay [9], “no binding (tested: 66.67 nM)” in assay [10] and “no binding (tested: 66.67 nM)” in assay [11]. In assay [7], this molecule had a concentration for half-maximal inhibition (IC50) of 2350 pM. This molecule also had an equilibrium dissociation constant (Kd) in [8] of 2.18 pM. The off-rate (koff) in assay [8] stood at 2.07e-06 s⁻¹. In assay [8], this molecule displayed an on-rate (kon) of 947000 M⁻¹ s⁻¹.
